Source: the supplement of paper PMC10567573

B1: CDC25A (parent)
chain: KKFRTKSRTWAGEKSKREMYSRLK
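Further: lentivirally expressed fusions sorted by FACS into six bins by GFP to DsRed ratio, PSI derived from sequencing read proportions per bin multiplied by bin number.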

Variants of: B1
Assay: protein stability index of a GFP-peptide fusion (GPS, HEK-293T) (PSI 1-6); higher = more stable
Conditions: c terminus: a fixed tail appended
Work on KKFRTKSRTGAGEKSKREMYSRLK yielded a protein stability index of 3.92.
Variant KKFRTKSRTRAGEKSKREMYSRLK has a protein stability index of 3.41.
Variant KKFRTKSRTMAGEKSKREMYSRLK has a protein stability index of 3.66.
In the case of KKFRTKSRTAAGEKSKREMYSRLK, the protein stability index is reported as 3.89.
KKFRTKSRTWAGEKSKRELYSRLK showed a protein stability index of 2.7.
Work on KKFRTKSRTWAGEKSKREDYSRLK yielded a protein stability index of 4.05.
For KKFRTKSRTWAGEKSKREEYSRLK, the protein stability index was 3.79.
In the case of KKFRTKSRTWAGEKSKRERYSRLK, the protein stability index is reported as 3.44.
Work on KKFRTKSRTWAGEKSKREYYSRLK yielded a protein stability index of 3.24.
KKFRTKSRTWAGEKSKREHYSRLK showed a protein stability index of 3.54.
In the case of KKFRTKSRTWAGEKSKREKYSRLK, the protein stability index is reported as 4.05.
KKFRTKSRTWAGEKSKREFYSRLK gave a protein stability index of 3.53.
With KKFRTKSRTWAGEKSKRENYSRLK the protein stability index was 4.2.
KKFRTKSRTWAGEKSKREMYSRAK showed a protein stability index of 3.49.
With KKFRTKSRTWAGEKSKREMYSRQK the protein stability index was 3.74.
In the case of KKFRTKSRTWAGEKSKREMYSRCK, the protein stability index is reported as 2.87.
Work on KKFRTKSRTWAGEKSKREMYSRYK yielded a protein stability index of 2.57.
Work on KKFRTKSRTWAGEKSKREMYSRNK yielded a protein stability index of 4.01.
Variant KKFRTKSRTWAGEKSKREMYSRKK has a protein stability index of 3.84.
With KKFRTKSRTWAGEKSKREMYSDLK the protein stability index was 2.49.
KKFRTKSRTWAGEKSKREMYSGLK showed a protein stability index of 3.92.
In the case of KKFRTKSRTWAGEKSKREMYSALK, the protein stability index is reported as 2.19.
Work on KKFRTKSRTWAGEKSKREMYSILK yielded a protein stability index of 2.01.
Work on KKFRTKSRTWAGEKSKREMYSLLK yielded a protein stability index of 2.82.
Work on KKFRTKSRTWAGEKSKREMYSHLK yielded a protein stability index of 3.02.
With KKFRTKSRTWAGEKSKREMYSWLK the protein stability index was 2.28.
KKFRTKSRTWAGEKSKREMYSCLK gave a protein stability index of 3.17.
KKFRTKSRTWAGEKSKREMYSQLK gave a protein stability index of 2.83.
KKFRTKSRTWAGEKSKREMYSTLK showed a protein stability index of 3.41.
For KKFRTKSRTWAGEKSKRGMYSRLK, the protein stability index was 2.98.
KKFRTKSRTWAGEKSKRLMYSRLK showed a protein stability index of 2.64.
In the case of KKFRTKSRTWAGEKSKRHMYSRLK, the protein stability index is reported as 2.71.
Variant KKFRTKSRTWAGEKSKRMMYSRLK has a protein stability index of 2.87.
KKFRTKSRTWAGEKSKRPMYSRLK showed a protein stability index of 2.17.
With KKFRTKSRTWAGEKSKRQMYSRLK the protein stability index was 2.37.
KKFRTKSRTWAGEKSKRFMYSRLK gave a protein stability index of 2.88.
For KKFRTKSRTWAGEKSKRSMYSRLK, the protein stability index was 2.43.
Variant KKFRTKSRTWAGEKSKRIMYSRLK has a protein stability index of 3.64.
In the case of KKFRTKSRTWAGEKSKRYMYSRLK, the protein stability index is reported as 1.9.
With KKFRTKSRTWAGHKSKREMYSRLK the protein stability index was 3.1.
Work on KKFRTKSRTWAGNKSKREMYSRLK yielded a protein stability index of 2.79.
Work on KKFRTKSRTWAGIKSKREMYSRLK yielded a protein stability index of 3.07.
With KKFRTKSRTWAGKKSKREMYSRLK the protein stability index was 3.49.
For KKFRTKSRTWAGEKKKREMYSRLK, the protein stability index was 3.14.
For KKFRTKSRTWAGEKAKREMYSRLK, the protein stability index was 3.72.
Variant KKFRTKSRTWAGEKYKREMYSRLK has a protein stability index of 1.94.
With KKFRTKSRTWAGEKTKREMYSRLK the protein stability index was 3.88.
KKFRTKSRTWAGEKMKREMYSRLK showed a protein stability index of 3.2.
Work on KKFRTKSRTWAGEKRKREMYSRLK yielded a protein stability index of 2.73.
Work on KKFRTKSRTWAGEKGKREMYSRLK yielded a protein stability index of 2.52.
KKFRTKSRTWAGEKQKREMYSRLK showed a protein stability index of 2.38.
KKFRTKSRTWAGEKIKREMYSRLK showed a protein stability index of 2.45.
Variant KKFRTKSRTWAGEKDKREMYSRLK has a protein stability index of 3.3.
Work on KKFRTKSRCWAGEKSKREMYSRLK yielded a protein stability index of 3.12.
Work on KKFRTKSRKWAGEKSKREMYSRLK yielded a protein stability index of 3.48.
KKFRTKSRFWAGEKSKREMYSRLK showed a protein stability index of 3.17.
In the case of KKFRTKSRHWAGEKSKREMYSRLK, the protein stability index is reported as 2.29.
Variant KKFRTKSRLWAGEKSKREMYSRLK has a protein stability index of 2.74.
KKFRTKSRRWAGEKSKREMYSRLK showed a protein stability index of 2.29.
Work on KKFRTKSRQWAGEKSKREMYSRLK yielded a protein stability index of 2.67.
Variant KKFRTKSRNWAGEKSKREMYSRLK has a protein stability index of 3.55.
Work on KKFRTKSRYWAGEKSKREMYSRLK yielded a protein stability index of 3.
Work on KKFRTKSRTWATEKSKREMYSRLK yielded a protein stability index of 2.6.
Work on KKFRTKSRTWAVEKSKREMYSRLK yielded a protein stability index of 2.64.
With KKFRTKSRTWAFEKSKREMYSRLK the protein stability index was 2.68.
KKFRTKSRTWAIEKSKREMYSRLK showed a protein stability index of 2.43.
For KKFRTKSRTWAEEKSKREMYSRLK, the protein stability index was 2.82.
Variant KKFRTKSRTWASEKSKREMYSRLK has a protein stability index of 2.64.
Work on KKFRTKSRTWAPEKSKREMYSRLK yielded a protein stability index of 3.93.
For KWFRTKSRTWAGEKSKREMYSRLK, the protein stability index was 2.63.
For KGFRTKSRTWAGEKSKREMYSRLK, the protein stability index was 4.12.
In the case of KMFRTKSRTWAGEKSKREMYSRLK, the protein stability index is reported as 1.76.
With KCFRTKSRTWAGEKSKREMYSRLK the protein stability index was 2.38.
Variant KIFRTKSRTWAGEKSKREMYSRLK has a protein stability index of 2.38.
Variant KDFRTKSRTWAGEKSKREMYSRLK has a protein stability index of 3.22.
In the case of KKFQTKSRTWAGEKSKREMYSRLK, the protein stability index is reported as 3.86.
With KKFLTKSRTWAGEKSKREMYSRLK the protein stability index was 2.47.
With KKFITKSRTWAGEKSKREMYSRLK the protein stability index was 2.3.
Variant KKFTTKSRTWAGEKSKREMYSRLK has a protein stability index of 3.37.
Work on KKFATKSRTWAGEKSKREMYSRLK yielded a protein stability index of 2.6.
KKFRTKSRTWAGEHSKREMYSRLK gave a protein stability index of 2.82.
Variant KKFRTKSRTWAGEPSKREMYSRLK has a protein stability index of 3.36.
Variant KKFRTKSRTWAGEVSKREMYSRLK has a protein stability index of 2.41.
Work on KKFRTKSRTWAGEQSKREMYSRLK yielded a protein stability index of 3.09.
Work on KKFRTKSRTWAGERSKREMYSRLK yielded a protein stability index of 2.61.
KKFRTKSRTWAGECSKREMYSRLK gave a protein stability index of 2.54.
KKFRTKSRTWAGEFSKREMYSRLK gave a protein stability index of 2.44.
In the case of KKFRTKSRTWAGEYSKREMYSRLK, the protein stability index is reported as 2.25.
Work on KKFRTKSRTWAGETSKREMYSRLK yielded a protein stability index of 3.1.
KKFRTKSRTWAGEISKREMYSRLK gave a protein stability index of 2.71.
Work on KKFRTKSRTWAGELSKREMYSRLK yielded a protein stability index of 2.51.
Work on KKFRTKSRTWAGEWSKREMYSRLK yielded a protein stability index of 1.6.
For KKFRTKSRTWAGEASKREMYSRLK, the protein stability index was 2.82.
With KKFRTKSRTWAGEMSKREMYSRLK the protein stability index was 3.07.
